Data on 1 substance can be found in patent US11938195B2, “Upconversion nanoparticle peptide conjugates” (BP InnoMed Limited, priority 2021, dated 2024).

Series [1] has as its system LMP1-positive LCL3 cells. In words: MTT cytotoxicity assay, LCL3 cells. The class given is cell-based. Particulars: 24 h incubation. Here is the method:
The inhibitory effects of the novel nanoprobes on both EBV-infected cancer cells and non-EBV-infected cancer cells were investigated by MTT assays to test the cell viability. The cytotoxic assays were performed in EBV-positive C666 and NPC43 cells, LMP1-positive LCL3 and Raji cells, and the LMP1-positive and -negative HK1 cell pair. HK1, MRC-5 and HeLa cell lines are EBV-negative and they serve as negative controls. […] In addition, UCNP-P4, EBNA1-specific peptide coated UCNPs was included as control group, so the ability of inhibiting EBV-related cancer cells can be directly compared with UCNP-Pn [n=5, 6 and 7 (SEQ ID NO: 5, 6, 7)].
In vitro cytotoxic assays: The cytotoxicity of our nanoprobes was determined by MTT reduction assay. The cells (3×10^3 per well) were seeded onto 96-well plates and incubated overnight, followed by treatment with Pn [n=5, 6 and 7 (SEQ ID NO: 5, 6, 7)], UCNP, UCNP-Pn [n=5, 6 and 7 (SEQ ID NO: 5, 6, 7)] and UCNP-P4 individually at 37° C., 5% CO2 for 24 h in dark. The cell monolayers were rinsed with PBS and 50 μL of MTT, 3-(4,5-dimethylthiazol-2-yl)-2,5-diphenyltetrazolium bromide solution (0.5 mg mL^−1) was added per well and the cells were further incubated for 3 h at 37° C. […] The absorptions of the formazan crystal solutions at 540 nm and 690 nm were measured using a dual-wavelength Labsystem Multiskan microplate reader (Merck Eurolab).

In series [2] the test system is EBV- and LMP1-negative HK1 cells. As to the kind of experiment: MTT cytotoxicity assay, HK1 cells. Set-up: unit not given here. It is filed as cell-based. Particulars: 24 h incubation. (In general: Formazan colour is commonly taken as a measure of viable cells.)
Series [3] concerns EBV-negative HeLa cells. As to the kind of experiment: MTT cytotoxicity assay, HeLa cells. The class given is cell-based, human. Set-up: unit not given here. Particulars: 24 h incubation.
The test system of series [4] is EBV-negative MRC-5 cells. As to the kind of experiment: MTT cytotoxicity assay, MRC-5 cells. Particulars: 24 h incubation. Set-up: unit not given here. It is filed as cell-based, human.
Series [5] is described as follows: Peptide release from nanoprobes under various time intervals (UV-vis absorbance). The class given is physicochemical. Particulars: 0.5 mg/mL. An excerpt:
The stability and capability of cleavage of the pH linker were also studied. […] More importantly, TEM images of UCNP-P5 at different pH buffers were observed and investigated in FIG. 1, providing direct evidence on pH-responsive peptide release from UCNP.

The subject of series [6] is HK1-LMP1 cells. In words: Cellular uptake by ICP-MS, HK1-LMP1. The class given is cell-based. Here is the method:
Subsequently, the quantitative distribution and uptake efficiency of nanoprobes in vitro in C666, HK1, HK1-LMP1 and LCL3 cells lines were monitored and investigated by evaluating the lanthanide content originating from the nanoprobes using inductively coupled plasma mass spectrometry (ICP-MS).
After co-incubation, the cell culture medium containing the nanoprobes was removed, and the exposed cells were further rinsed with 1 mL PBS three times. After that, the cells were trypsinized and re-dispersed in 1 mL cell medium. The cells were collected by centrifugation at 1500 rpm, and the cell pellet was digested in 100 μL concentrated HNO3 (69%) at room temperature for 3 h. Then, each cell pellet in centrifuge tube was filled up to 10 mL with 1% HNO3. The cellular uptake of all the nanoprobes was recorded via an Agilent 7500 series ICP-MS instrument. All ICP experiments were performed three times, and the values of Gd concentration (ppm) obtained were calculated and averaged.

The subject of series [7] is p65. As to the kind of experiment: Western blot of p65 (NF-κB) in C666 cells. It is filed as cell-based. An excerpt:
NF-κB signaling pathway is critical for the survival of EBV-infected tumor cells. Here we investigated if our nanoprobes could affect this oncogenic pathway. EBV-positive LCL3 and C666 cells were used as models, EBV-negative HK1 cells were used as control and Western blot was used to analyze the protein expression of p65, a major transcription factor in the NF-κB family. […] GAPDH and Histone are regarded as internal standards in cytosolic and nuclear fractions, respectively. […] This is consistent with the cellular uptake results.
Western blotting: EBV-positive C666, LCL3 and EBV-negative HK1 cell pellets were treated with phosphatase and protease inhibitors at 0-4° C. for 30 min. The total protein concentrations were calculated by protein absorbance. The protein was resolved by sodium dodecyl sulfate-polyacrylamide gel electrophoresis (SDS-PAGE) and transferred to cellulose filter membranes. The membranes were blocked with 3% BSA in Tris-buffered saline in 0.1% Tween 20 (TBST) for 1 h with gentle shaking and subsequently incubated with primary antibodies (1:1000) in 3% BSA in TBST at 4° C. for overnight. After rinsing with TBST buffer three times, the blots were then incubated with corresponding secondary anti-rabbit antibody (1:6000) for 1 h. After that, the blots were rinsed again with 3% BSA in TBST for 1 h shaking at room temperature. Lastly, the density of bands was determined by image analysis system after washing with TBST buffer three times.
For orientation: In western blotting, separated proteins are transferred to a membrane and probed.

Series [8] concerns C666-tumor. Particulars: 12.5 mg/kg i.v.; 3-36 h after injection; 980 nm. Here is the method: (§1) In vivo upconversion luminescence imaging was performed using UCNP-P5 under 980 nm excitation (laser power: 3 W). C666-tumor-bearing and HeLa-tumor-bearing nude mice were injected with UCNP-P5 through the tail vein.
(§2) In vivo upconversion luminescence imaging: C666 and HeLa cells (10^6 cells) were inoculated subcutaneously in BALB/c female nude mice (6 weeks). When the tumors reached 0.2-0.3 cm in diameter, the C666-tumor-bearing and HeLa-tumor-bearing mice were anesthetized and injected intravenously with UCNP-P5 (150 μl, 12.5 mg/kg per mouse). The in vivo upconversion luminescence images were recorded at different time points (3 h, 6 h, 12 h, 24 h, 36 h).

In series [9] the test system is HeLa derived xenograft. Particulars: 12.5 mg/kg i.v.; 3-36 h after injection; 980 nm. Here is the method:
as §1, §2

Where no end group is shown, it is not given here. [ ]: non-standard residue; d: D form. Ahx = NCCCCCC(=O)O

On to “UCNP-P5: UCNP is NaGdF4:Yb^3+, Er^3+@NaGdF4 and plurality of polypeptides is Ahx-YFMVFGGRrRKGGFWLY (SEQ ID NO: 5), pH-sensitive imine linker ([Ahx]YFMVFGGR[dR]RKGGFWLY; also: conjugated to UCNP NaGdF4:Yb3+,Er3+@NaGdF4 via pH-sensitive imine linker)”, for which the “IC50 in LCL3” value in series [1] is 19 mg/mL. Moreover, in series [2], the “IC50 in HK1” value was determined as 1027. For the same substance, the “IC50 in HeLa” value in series [3] turned out to be 1086. In series [4], the “IC50 in MRC-5” value is on record as 1280. In addition, the Peptide release rate in series [5] (1 h) turned out to be 0%; in [5] (3 h) it was 0%; in [5] (6 h) it was 0.1%; in series [5] (12 h) it was 0.5%; in [5] (24 h), 0.7%; in series [5] (3 day), 0.8%. Also, the Peptide release rate in series [5] (5 day) is on record as 1.1%; in series [5] (7 day) it was 1.9%. The “Uptake relative to UCNP-P6 and UCNP-P7” value in [6] (HK1-LMP1 (HK1 / HK1-LMP1 cell pair)) is reported as “two-fold”. Further, the “Cellular uptake (Gd amount by ICP-MS)” value in series [6] (HK1-LMP1, 50 μg/mL) was “largest amount of cellular uptake”. For the same substance, in [7], the “Decreased p65 expression, nuclear fraction” value was 89%. Moreover, the “Upconversion luminescence signal from the tumor site” value is on record as “persisted even 24 h after the injection” in series [8] and “only observed at 3 h after the injection” in [9].
